Paper PMC4379030

What was measured:
[1] = molecular target: CaM-free full-length murine inducible nitric-oxide synthase, expressed and purified in the absence of CaM (murine) (UniProt P29477)
[2] = molecular target: CaM-free full-length murine inducible nitric-oxide synthase, expressed and purified in the absence of CaM (murine) (UniProt P29477); assay: ITC; single injection mode; 20 μM iNOSfl (-CaM) (dissolved in 200 μl) against 8 μM CaM (dissolved in 2 ml); 40 mM EPPS, 10% glycerol, 150 mM NaCl, 2 mM Ca2+; single-site binding model

UniProt P29477, sequence (P29477 whole entry): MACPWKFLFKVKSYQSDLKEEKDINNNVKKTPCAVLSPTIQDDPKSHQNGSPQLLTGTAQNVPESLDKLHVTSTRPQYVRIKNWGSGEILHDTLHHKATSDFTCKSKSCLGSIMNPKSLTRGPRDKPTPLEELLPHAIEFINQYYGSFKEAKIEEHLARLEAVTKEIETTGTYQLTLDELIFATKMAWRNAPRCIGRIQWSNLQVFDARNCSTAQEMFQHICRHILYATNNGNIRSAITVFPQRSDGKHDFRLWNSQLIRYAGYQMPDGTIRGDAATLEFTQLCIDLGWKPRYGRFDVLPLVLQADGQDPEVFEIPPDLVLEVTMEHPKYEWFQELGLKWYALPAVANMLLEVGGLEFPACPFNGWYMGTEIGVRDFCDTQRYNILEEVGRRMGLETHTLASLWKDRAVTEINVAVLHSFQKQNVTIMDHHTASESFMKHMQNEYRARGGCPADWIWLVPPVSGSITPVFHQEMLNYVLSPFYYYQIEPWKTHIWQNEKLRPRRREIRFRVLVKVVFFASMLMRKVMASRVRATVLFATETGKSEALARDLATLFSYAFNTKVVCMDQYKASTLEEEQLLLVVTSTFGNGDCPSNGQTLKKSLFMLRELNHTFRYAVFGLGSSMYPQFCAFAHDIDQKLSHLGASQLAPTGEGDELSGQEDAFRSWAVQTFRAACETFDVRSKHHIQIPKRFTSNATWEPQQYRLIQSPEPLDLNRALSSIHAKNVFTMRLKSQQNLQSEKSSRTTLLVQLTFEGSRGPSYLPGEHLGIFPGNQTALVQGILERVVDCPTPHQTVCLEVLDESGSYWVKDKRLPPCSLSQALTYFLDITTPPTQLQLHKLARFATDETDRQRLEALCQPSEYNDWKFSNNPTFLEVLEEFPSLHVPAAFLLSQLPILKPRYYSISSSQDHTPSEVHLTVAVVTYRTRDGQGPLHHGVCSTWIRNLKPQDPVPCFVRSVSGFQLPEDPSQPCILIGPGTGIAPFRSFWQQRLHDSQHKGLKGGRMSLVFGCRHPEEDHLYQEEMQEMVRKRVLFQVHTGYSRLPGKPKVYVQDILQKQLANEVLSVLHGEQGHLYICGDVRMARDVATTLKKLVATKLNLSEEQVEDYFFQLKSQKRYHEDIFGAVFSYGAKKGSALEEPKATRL

Question: With “calmodulin (added in vitro) (from UniProt P0DP23 1-149) (natural protein)” as the substance, how does the steady-state NO synthesis activity (oxyhemoglobin assay, 1 μM CaM in the assay buffer, 25°C) (min^-1 per μg of protein) [1] read?
Answer: 10.8

Question: What about the dH [2] of the same substance?
Answer: 489 kcal/mol
